Positions count from the first letter of the chain named.
B1: FAJ-N0C0 first clone: E. coli-expressed full-length JT-FAJ-16 sialyltransferase, nucleotides 1 to 1209 of SEQ ID NO: 30 (protein, listed as Vibrio sp.)
chain: MKNIITKRMLIILSSLFTIIGCNNDNSTTTNNNAIEIYVDRATLPTIQQMTKIVSQKTSNKKLISWSRYPITDKSLLKKINAEFFKEQFELTESLKNIILSENIDNLIIHGNTLWSIDVVDIIKEVNLLGKNIPIELHFYDDGSAEYVRIYEFSKLPESEQKYKTSLSKNNIKFSIDGTDSFKNTIENIYGFSQLYPTTYHMLRADIFDTTLKINPLRELLSNNIKQMKWDYFKDFNYKQKDIFYSLTNFNPKEIQEDFNKNSNKNFIFIGSNSATATAEEQINIISEAKKENSSIITNSISDYDLFFKGHPSATFNEQIINAHDMIEINNKIPFEALIMTGILPDAVGGMGSSVFFSIPKEVKNKFVFYKSGTDIENNSLIQVMLKLNLINRDNIKLISDI
modifications: CDS (1)..(1209) /gene=“FAJ16-23ST” /product=“Beta-galactoside- alpha 2,3-sialyltransferase”
B2: ISH467-N0C0 first clone: E. coli-expressed full-length JT-ISH-467 sialyltransferase with Asn to Ser change at position 190 of SEQ ID NO: 2 (protein, listed as Photobacterium phosphoreum)
chain: MFVFCKKIFFLIFISLMILGGCNSDSKHNNSDGNITKNKTIEVYVDRATLPTIQQMTQIINENSNNKKLISWSRYPINDETLLESINGSFFKNRPELIKSLDSMILTNEIKKVIINGNTLWAVDVVNIIKSIEALGKKTEIELNFYDDGSAEYVRLYDFSRLPESEQEYKISLSKDNIQSSINGTQPFDSSIENIYGFSQLYPTTYHMLRADIFETNLPLTSLKRVISNNIKQMKWDYFTTFNSQQKNKFYNFTGFNPEKIKEQYKASPHENFIFIGTNSGTATAEQQIDILTEAKKPDSPIITNSIQGLDLFFKGHPSATYNQQIIDAHNMIEIYNKIPFEALIMTDALPDAVGGMGSSVFFSLPNTVENKFIFYKSDTDIENNALIQVMIELNIVNRNDVKLISDLQ
B3: ISH467-N0C0 second clone: E. coli-expressed full-length JT-ISH-467 sialyltransferase, nucleotide sequence of SEQ ID NO: 1, no change (protein, listed as Photobacterium phosphoreum)
chain: B2 chain with S190N
modifications: CDS (1)..(1230) /gene=“467-23ST” /product=“Beta-galactoside- alpha 2,3-sialyltransferase”
B4: ISH467-N2C0 first clone: JT-ISH-467 sialyltransferase lacking signal peptide region, Phe replaced by Ser at position 159 (protein, listed as Photobacterium phosphoreum)
chain: B2 chain with F159S, S190N
modifications: lacks signal peptide; cited entry is nucleotide; CDS (1)..(1230) /gene=“467-23ST” /product=“Beta-galactoside- alpha 2,3-sialyltransferase”

Assays:
Assay type in all cases: biochemical
[1] = test system: β-galactoside-α2,3-sialyltransferase from Photobacterium phosphoreum JT-ISH-467; test: Determination of binding mode of sialic acid using pyridylaminated sugar chain, HPLC; settings: acceptor 2.0 μM, CMP-NeuAc 5.7 μM, enzyme 20 mU/ml, pH 6.0, 25° C., 3 hours
Procedure: (§1) Using the enzyme obtained in Example 2, the enzymatic reaction was carried out using a pyridylaminated sugar chain as a glycosyl acceptor substrate. The pyridylaminated sugar chain used for analysis was pyridylaminated lactose (Galβ1-4Glc-PA, Takara Bio Inc., Japan). The glycosyl acceptor substrate, CMP-NeuAc and the enzyme were dissolved at 2.0 μM, 5.7 μM and 20 mU/ml, respectively, in 25 μl of 20 mM cacodylate buffer (pH 6.0), and then reacted at 25° C. for 3 hours. After the reaction, the reaction solution was treated at 100° C. for 2 minutes to inactivate the enzyme, followed by HPLC to analyze the reaction product.
The HPLC system used was Shimadzu LC10A (Shimadzu Corporation, Japan) and the analytical column used was Takara PALPAK Type R (Takara Bio Inc., Japan). The column which had been equilibrated with 100 mM acetate-triethylamine (pH 5.0) containing 0.15% N-butanol was injected with the reaction solution diluted with Eluent A (100 mM acetate-triethylamine, pH 5.0). […] The analysis was performed under the following conditions: flow rate: 1 ml/min, column temperature: 40° C., detection: fluorescence (Ex: 320 nm, Em: 400 nm).

[2] = Sialyltransferase activity in E. coli homogenate (crude enzyme solution), transfer of 14C-NeuAc from CMP-NeuAc to lactose; settings: lactose acceptor; for Radioactivity (cpm) Average: average of duplicate; for Sialyltransferase activity in crude enzyme solution (in words): CMP-14C-NeuAc donor
Procedure: Sialyltransferase activity was measured as described in J. Biochem., 120, pp. 104-110 (1996) (which is hereby incorporated by reference in its entirety). More specifically, the enzymatic reaction was accomplished by using CMP-NeuAc (70 nmol, containing 25000 cpm CMP-NeuAc in which NeuAc was labeled with ^14C, 356 cpm/nmol; NeuAc represents N-acetylneuraminic acid) as a glycosyl donor substrate, lactose (1.25 μmol) as a glycosyl acceptor substrate, NaCl added to give a concentration of 0.5 M, and the enzyme-containing reaction solution (30 μl) prepared as described above. The enzymatic reaction was carried out at 25° C. for 10 to 30 minutes. After completion of the reaction, 1.97 ml of 5 mM phosphate buffer (pH 6.8) was added to the reaction solution, which was then applied to a Dowex 1×8 (PO4^3− form, 0.2×2 cm, BIO-RAD) column. The radioactivity was measured for the reaction product, i.e., sialyllactose contained in the eluate (0 to 2 ml) from this column to calculate the enzyme activity.
An induction experiment of protein expression was performed on the two 467-N0C0 clones and the three 467-N2C0 clones obtained in (4) above. A single colony of E. coli TB1 having the expression vector pTrc99A carrying each clone was inoculated into LB medium (5 ml) containing an antibiotic, ampicillin (final concentration 100 μg/mL), and pre-cultured at 30° C. to about A600=0.5, followed by addition of IPTG (isopropyl-β-D(−)-thiogalactopyranoside, Wako Pure Chemical Industries, Ltd. Japan) at a final concentration of 1 mM. After culturing with shaking at 30° C. for an additional 4 hours, the cells in 2 ml culture solution were collected by centrifugation. These cells were suspended in 200 μl of 20 mM BisTris buffer (pH 7.0) containing 0.336% Triton X-100 and 0.5 M sodium chloride, and ultrasonically homogenized under ice cooling. The resulting homogenate was defined as a crude enzyme solution and provided for activity measurement. The reaction was carried out in duplicate, and the reaction composition was the same as shown in Example 1, except that the reaction time was set to 15 hours.
In the same manner as shown in Example 5(5), an induction experiment of protein expression was performed on 2 clones, i.e., the first clone of ISH224-N0C0 and the first clone of ISH224-N1C0 to measure their enzyme activity.
In the same manner as shown in Example 5(5), an induction experiment of protein expression was performed on 3 clones, i.e., the first clone of FAJ-N0C0 as well as the first and second clones of FAJ-N1C0 to measure their enzyme activity.

[3] = Confirmation of α2,3 sialyltransferase activity of E. coli-expressed enzyme with pyridylaminated lactose, HPLC; settings: pyridylaminated lactose 2.0 μM, CMP-sialic acid 5.7 μM, pH 6.0, 25° C., 6 hours
Procedure: as §1
The HPLC system used was Shimadzu LC10A (Shimadzu Corporation, Japan) and the analytical column used was Takara PALPAK Type R (Takara Bio Inc., Japan). The column which had been equilibrated with 100 mM acetate-triethylamine (pH 5.0) containing 0.15% N-butanol was injected with the reaction solution diluted with Eluent A (100 mM acetate-triethylamine, pH 5.0). For elution of the pyridylaminated sugar chain, Eluent A (100 mM acetate-triethylamine, pH 5.0) and Eluent B (100 mM acetate-triethylamine containing 0.5% n-butanol, pH 5.0) were used to successively elute the pyridylaminated sugar chain with a linear gradient of 30% to 100% Eluent B (0 to 35 minutes) and then 100% Eluent B (35 to 50 minutes). The analysis was performed under the following conditions: flow rate: 1 ml/min, column temperature: 40° C., detection: fluorescence (Ex: 320 nm, Em: 400 nm).
As in the case of Example 3, pyridylaminated lactose (Galβ1-4Glc-PA, PA-Sugar Chain 026, Takara Bio Inc., Japan) was used as a glycosyl acceptor to carry out the enzymatic reaction. After the reaction, the reaction solution was heated at 95° C. for 5 minutes to inactivate the enzyme, followed by HPLC analysis. It should be noted that the enzymatic reaction was accomplished at 25° C. for 6 hours using pyridylaminated lactose and CMP-sialic acid dissolved at 2.0 μM and 5.7 μM, respectively, in 25 μl of 20 mM cacodylate buffer (pH 6.0) (Reaction 1). On the other hand, a control experiment (Reaction 2) was carried out using a reaction solution free from CMP-sialic acid. Further, to clarify the retention time of standards, the crude enzyme solution was inactivated by thermal treatment (95° C., 5 minutes) and tested in the presence of pyridylaminated lactose and pyridylaminated α2,3-sialyllactose (pyridylaminated 3′-sialyllactose) (Neu5Acα2-3Galβ1-4Glc-PA, PA-Sugar Chain 029, Takara Bio Inc., Japan).

[4] = JT-FAJ-16 gene clones, as Example 5(5)
[5] = JT-ISH-467 gene clones, 25° C., reaction time 15 hours

Molecule	Reaction product from pyridylaminated sugar chain (binding mode of sialic acid) [1]	Radioactivity (cpm) Round 1 [2, 4]	Radioactivity (cpm) Round 2 [2, 4]	Radioactivity (cpm) Average [2, 4]	Sialyltransferase activity in crude enzyme solution (in words) [2]	α2,3 sialyltransferase activity (formation of pyridylaminated α2,3-sialyllactose) [3]	Radioactivity (cpm) Round 1 [2, 5]	Radioactivity (cpm) Round 2 [2, 5]	Radioactivity (cpm) Average [2, 5]
OC[C@@H](O)[C@@H](O[C@@H]1O[C@H](CO)[C@H](O)[C@H](O)[C@H]1O)[C@H](O)[C@@H](O)CNc1ccccn1 [PA-Sugar Chain 026, pyridylaminated lactose]	pyridylaminated α2,3-sialyllactose (pyridylaminated 3′-sialyllactose) was synthesized	–	–	–	–	–	–	–	–
B1	–	11012 cpm	12056 cpm	11534 cpm	sialyltransferase activity was observed	a peak of pyridylaminated α2,3-sialyllactose (pyridylaminated 3′-sialyllactose) was detected	–	–	–
B2	–	–	–	–	sialyltransferase activity in both crude enzyme solutions	found to have α2,3 sialyltransferase activity	8496 cpm	7486 cpm	7991 cpm
B3	–	–	–	–	sialyltransferase activity in both crude enzyme solutions	found to have α2,3 sialyltransferase activity	7097 cpm	7809 cpm	7453 cpm
B4	–	–	–	–	sialyltransferase activity was also observed	had α2,3 sialyltransferase activity	10514 cpm	9033 cpm	9773.5 cpm

Source: US8030043B2, “β-galactoside-α2,3-sialyltransferase, a gene encoding thereof, and a method for producing thereof” (Japan Tobacco Inc., priority 2005, dated 2011)
